Results from patent US5851983.
Read-outs that look alike come from different tables or passages of the source.

How the values were obtained:
[1] = target: Bovine spleen trypsin (Sigma) (bovine) (UniProt P00760)
[2] = target: Polymorphonuclear leukocyte elastase from human sputum (EPC Co.; Funakoshi Yakuhin) (human) (UniProt P08246)
[3] = target: Bovine spleen trypsin (Sigma) (bovine) (UniProt P00760); remark: listed apart in the source
[4] = target: Polymorphonuclear leukocyte elastase from human sputum (EPC Co.; Funakoshi Yakuhin) (human) (UniProt P08246); remark: listed apart in the source
[5] = target: Porcine pancreatic elastase (Sigma) (porcine) (UniProt P00772)
Sequence of Porcine pancreatic elastase (Sigma) (porcine) (P00772 27-266): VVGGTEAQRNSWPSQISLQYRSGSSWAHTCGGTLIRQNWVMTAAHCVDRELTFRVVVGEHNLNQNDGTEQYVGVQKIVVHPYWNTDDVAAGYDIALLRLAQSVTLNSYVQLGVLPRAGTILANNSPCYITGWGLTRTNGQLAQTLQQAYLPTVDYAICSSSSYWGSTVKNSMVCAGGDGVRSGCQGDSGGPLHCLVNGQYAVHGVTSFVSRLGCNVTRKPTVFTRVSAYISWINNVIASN

[6] = target: Calf pancreatic trypsin (Sigma) (calf (bovine)) (UniProt P00760)
Sequence of Calf pancreatic trypsin (Sigma) (calf (bovine)) (P00760 24-246): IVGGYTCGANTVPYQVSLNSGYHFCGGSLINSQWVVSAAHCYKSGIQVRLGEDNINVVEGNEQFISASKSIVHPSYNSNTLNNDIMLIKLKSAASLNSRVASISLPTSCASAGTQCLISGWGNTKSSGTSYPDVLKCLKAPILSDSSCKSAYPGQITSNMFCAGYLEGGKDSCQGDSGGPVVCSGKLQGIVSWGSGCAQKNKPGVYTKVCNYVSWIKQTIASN

[7] = target: Human plasma kallikrein (human) (UniProt P03952)
[8] = target: Human plasma thrombin (human) (UniProt P00734)
[9] = target: Calf pancreatic chymotrypsin (Sigma) (calf (bovine)) (UniProt P00766)
[10] = target: Human plasma plasmin (human) (UniProt P00747)
Sequence of Human plasma plasmin (human) (P00747 97-810 limits assumed): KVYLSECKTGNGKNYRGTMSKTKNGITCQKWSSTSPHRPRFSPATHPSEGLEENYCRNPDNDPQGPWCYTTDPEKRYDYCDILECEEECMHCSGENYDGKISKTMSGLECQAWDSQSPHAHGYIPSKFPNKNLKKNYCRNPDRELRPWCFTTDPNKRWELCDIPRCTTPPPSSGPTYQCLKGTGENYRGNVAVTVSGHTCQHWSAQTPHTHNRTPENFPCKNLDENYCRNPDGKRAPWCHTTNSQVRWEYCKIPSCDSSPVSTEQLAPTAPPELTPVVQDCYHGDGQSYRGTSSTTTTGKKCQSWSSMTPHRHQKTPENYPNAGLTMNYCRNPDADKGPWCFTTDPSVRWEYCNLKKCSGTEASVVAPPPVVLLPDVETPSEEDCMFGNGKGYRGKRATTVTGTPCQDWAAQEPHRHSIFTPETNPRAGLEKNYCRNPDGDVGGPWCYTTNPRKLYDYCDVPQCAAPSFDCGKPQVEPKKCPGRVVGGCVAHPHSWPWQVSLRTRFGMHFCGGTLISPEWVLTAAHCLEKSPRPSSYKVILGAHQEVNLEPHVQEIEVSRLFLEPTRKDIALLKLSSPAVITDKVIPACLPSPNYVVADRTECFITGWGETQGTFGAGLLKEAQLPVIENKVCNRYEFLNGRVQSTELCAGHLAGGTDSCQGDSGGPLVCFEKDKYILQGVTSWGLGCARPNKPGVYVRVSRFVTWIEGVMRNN

[11] = target: Bovine spleen trypsin (Sigma) (bovine) (UniProt P00760); remark: listed apart in the source
[12] = target: Polymorphonuclear leukocyte elastase from human sputum (EPC Co.; Funakoshi Yakuhin) (human) (UniProt P08246); remark: listed apart in the source
[13] = target: Polymorphonuclear leukocyte elastase from human sputum (EPC Co.; Funakoshi Yakuhin) (human) (UniProt P08246); remark: listed apart in the source

Sequence of (Arg^59 -Ala^107) SLPI (chain): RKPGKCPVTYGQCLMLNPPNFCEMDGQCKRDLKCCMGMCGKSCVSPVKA
Sequence of α1 -AT (Sigma) (P01009 25-418 limits assumed): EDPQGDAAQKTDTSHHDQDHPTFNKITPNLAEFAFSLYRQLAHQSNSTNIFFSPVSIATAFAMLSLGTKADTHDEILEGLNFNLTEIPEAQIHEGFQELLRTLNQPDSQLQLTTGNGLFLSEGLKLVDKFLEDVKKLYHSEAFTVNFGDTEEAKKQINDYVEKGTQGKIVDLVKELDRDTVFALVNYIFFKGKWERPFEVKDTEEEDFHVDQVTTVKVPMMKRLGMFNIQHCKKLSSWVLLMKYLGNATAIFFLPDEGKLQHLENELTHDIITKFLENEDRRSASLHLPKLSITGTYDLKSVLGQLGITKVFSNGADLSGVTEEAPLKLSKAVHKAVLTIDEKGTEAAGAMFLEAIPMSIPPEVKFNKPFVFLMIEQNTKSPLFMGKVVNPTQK
Sequence of Human secretory leukoprotease inhibitor (SLPI) (chain): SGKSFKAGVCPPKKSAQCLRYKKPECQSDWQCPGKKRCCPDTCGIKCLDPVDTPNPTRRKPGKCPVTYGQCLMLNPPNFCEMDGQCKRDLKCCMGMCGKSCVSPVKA
Sequence of Bovine spleen trypsin (Sigma) (bovine) (P00760 24-246): as the sequence (P00760 24-246) above
Sequence of (Asn^55 -Ala^107) SLPI fragment polypeptide (chain): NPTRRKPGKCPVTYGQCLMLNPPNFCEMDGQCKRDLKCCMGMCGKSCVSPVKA
Sequence of (Arg^58 -Ala^107) SLPI (chain): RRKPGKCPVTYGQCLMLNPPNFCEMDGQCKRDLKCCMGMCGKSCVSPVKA

## (Arg^59 -Ala^107) SLPI
[1]
  IC50: 2000 nM
[2]
  IC50: 12 nM
[3]
  IC50 Value: 2500 nM
[4]
  IC50 Value: 14 nM

## Human secretory leukoprotease inhibitor (SLPI)
[1]
  IC50: 330 nM
[2]
  IC50: 13 nM
[3]
  IC50 Value: 240 nM
[4]
  IC50 Value: 16 nM

## α1 -AT (Sigma) (from UniProt P01009)
[5]
  concentration of inhibitory protein which exhibits a 50% inhibition: 300 nM
[6]
  concentration of inhibitory protein which exhibits a 50% inhibition: 200 nM
[7]
  concentration of inhibitory protein which exhibits a 50% inhibition: > 2 µM
[8]
  concentration of inhibitory protein which exhibits a 50% inhibition: > 2 µM
[9]
  concentration of inhibitory protein which exhibits a 50% inhibition: 2 µM
[10]
  concentration of inhibitory protein which exhibits a 50% inhibition: > 2 µM

## (Arg^58 -Ala^107) SLPI
[11]
  IC50: 2000 nM
[12]
  IC50: 12 nM

## (Asn^55 -Ala^107) SLPI fragment polypeptide
[6]
  concentration of inhibitory protein which exhibits a 50% inhibition: 130 nM
[13]
  concentration of inhibitory protein which exhibits a 50% inhibition: 1 nM
